Experiment: soluble on expression in E. coli; label from the status in PepcDB or PDB records
With “MSLTLKLFELVGADAGRPFSPFVWRTRMALAHKGLTAETIPWRFTDKAAIAPYGSEKVPVLLDGDKVVADSWAIANYLEDAYPDRPSLFGGDGGRAMARMLNWWGDLAIIGGIFPMIVADIAQRLDPEDAAYFRQSREARLKTTLEEAAASRDRAVQGFRKSLDPLRLTLKTQAFIGGAAPNYADYIVFGGFQWARVVSDFSLLQSDDPVYAWRERLLDAFGGLARATPGYPVEGHHHHHH” the “soluble on expression in E. coli” value was “soluble”. In the case of “MSLTLPDTDQLVAGIQSWIQCESPSNSPAGVTAMAHLAAEYARAVGLAVEIRPLNAEVGPLVHATNRAAGDTRPGVLILGHIDTVHPIGTLQDNPCRIDGDRLYGPGSYDMKAGIYLALSALRGLPSPDATALPVDFLLVPDEETGSHASREHIEHYAARAKYALVCEPARPNGGKCVTARKGTGMLRLNVKGRPAHAGMQHEKGRSAIREMAHQVLELESMTDYERGITVSVGTIAGGTVTNTVPAQCRCVVDFRVPDMGATEDVLRRMRNLCSVGPDMELDIDVELNRPPMVKTEAASALLQLAQDFAAQAGFALEDAPMTGGGSDANFTSAMGVPTLDGLGADGDGAHTLNEYILVSTLAARMRFWELLLKELHEGHHHHHH”, the “soluble on expression in E. coli” value is reported as “soluble”. For “MSLTMDVPPTIHVPLPPTSYPAFDAAIFTDIGGRKHQEDRFTLCPQLVPGRDDCAFFGVFDGTVGDFASENVKDLVVPQLISSPAWQEVTEMLRSDVPATEVDEKLPQLLDQAVDDMYKNADNELVKMCEQLNKDYASSTSVTAVLAKGFVAVGHLGDSRIAMGVETPNGLNCEFLTVDHKPDMPHEKLRIMRNGGSVEYLHNHNNKPFIRGGDFSFRKSRGEQPMQLQYSRAFGGKDLKMYGLSNQPDVRVVRVTPQHRVMILATDGLWDVMSAAQAVEIAMQARQEGRNPAQALVEMTLAEQQSRNQSADNITAMTVFFKKTDEGHHHHHH”, the “soluble on expression in E. coli” value was “soluble”. For “MSLTNTNAVELVKEAIDRGAEIILVKVDSKKYVKMSLELVKHFTEFAEGIFVTLNRPYFSLKKMLLKEGVDISKLYFIDCITLQLGGQVIDEERCFYLTSPDPVQLQVTIERAMDLVTVNNRFIYLDSLSTISLYKSFETLVKFLRHLTGKMRLRGFVGTIFTIEKEMDESYYSQISLMVDEVIEVDEGHHHHHH”, the “soluble on expression in E. coli” value was “soluble”. For “MSLTNYKVVVLDMDDTLLNSDNVISEETANYLTAIQDEGYYVVLASGRPTEGMIPTARDLKLPEHHSYIISYNGSKTINMTNEEVEVSKSIGKQDFDEIVDYCRDRGFFVLTYHDGQIIYDSEHEYMNIEAELTGLPMKRVDDIKAYIQGDVPKVMGVDYVANITEARIDLNGVFNDNVDATTSKPFFLEFMAKDVSKGNAIKALCHKLGYSVDQVIAFGDSMNDKSMFEVAGLAIAMGNASDELKQYADEVTLDHNENGIPHALKKLLEGHHHHHH”, the “soluble on expression in E. coli” value was “soluble”. For “MSLTQQITLIKDKILSDNYFTLHNITYDLTRKDGEVIRHKREVYDRGNGATILLYNTKKKTVVLIRQFRVATWVNGNESGQLIESCAGLLDNDEPEVCIRKEAIEETGYEVGEVRKLFELYMSPGGVTELIHFFIAEYSDNQRANAGGGVEDEDIEVLELPFSQALEMIKTGEIRDGKTVLLLNYLQTSHLMDEGGSHHHHHH”, the “soluble on expression in E. coli” value was “soluble”. With “MSLTSEDFLIKSKGYLDIQTGEIIKADLLIRNGKIAEIGKINTKDATVISIPDLILIPGLMDSHVHIVGNDSKGEESIADSSHMGTVWGVVNAEKTLMAGFTTVRNVGAANYADVSVRDAIERGVINGPTMLVSGPALGITGGHCDHNLLPPEFNYSSEGVVDSPWEARKMVRKNRKYGADLIKFCATGGVMSRNTDVNAKQFTLEEMKAIVDEAHNHGMKVAAHAHGLIGIKAAIKAGVDSVEHASFIDDETIDMAIKNNTVLSMDIFVSDYILGEGAKAGIREESLNKERLVGKKQRENFMNAHRRGAIITFGTDAGIFDHGDNAKQFAYMVEWGMTPLEAIQASTIKTATLFGIENIGQIKEGFDADIVGVIENPLANIRTLEEVAFVMKEGKVYKREGHHHHHH” the “soluble on expression in E. coli” value was “soluble”. With “MSLTSEIIDVHMHCFVGRQQETALARDIALLRREGLRRMVVAGLVNTHPDPETTWNLIPDYVENHGDPHFNEADDLLALAESVDHALLPFVDTRYLRGDVATALDGYMGQGFKGVKGIYLPDNENDLGVGNVPDTLGISLEQYRRREWDLFAYAENHDLPLLYHMDARRYGDVMKDLLDDFPRVRVNFPHLGIGRKAFSAFLDRYPNIFTDIAGLLPYMRSNPASYRDFIMHYPDRICFGTDTFLYQAGSALDYISMVRELRLPEEIEAQVFNGNPTRFLGCVLYGAEGHHHHHH” the “soluble on expression in E. coli” value was “not soluble”. For “MSLTSQKTQLEPLGIVRIEGLHYYVHDLERSRRFYAQKLDFAEVARSTPALEREGRQRSAVFEAGGVRVVCSEPVGQGGRAWRWLRKHPDGVGTVVLEVEDAERAFRLLEERGGTPITDVQEHRDDGGTLRTFSITTPLGDTTFRFVERRGFRAVYPGIEPLAAPEGGRNAFGFGHVDHLTNNFQTMKPALLWMEHVMGMEEFWEVEFHTKDAAGARRAAIEAQKGSGLRSVVMRDPRSGVKFANNEPRRPAFKSSQINLFNEDLRGDGVQHAALTVQDILSSVRGMRARGVEFMPTPAAYYEALPERIRSTGIGRIDEDPRVLQELEILVDGAGDHSYLLQIFLRESAGLYHDPDAGPFFFEIIQRKGDQGFGAGNFRALFESIEREQVREGREGHHHHHH”, the “soluble on expression in E. coli” value was “soluble”. With “MSLTSWNATIDPDNTIRFKEPDVLFDSGKSQVKERFKVVLDDFFPRYVKILSQEKYKGDIEEIRIEGHTSSEWLNAKTLEERYLGNAALSQARAFEVLKYCFALERIKGEQDWLIKVLRANGLSFAKPLDSEEHSRRVEFRTLTRSHQKMLKILDLSKEGHHHHHH” the “soluble on expression in E. coli” value was “not soluble”. With “MSLTVPTILVIDDDVQVCETIASLLARLRYACETAHSLEQGLAILETAPVDVVFLDVRLPDGNGIDALPRIRQAPSHPEVIILTGEGDPDDAELAIQGGVWDYLVKPTPIKQTTLTLARALQYRAEKLSKGGGGTVALDLDGVVGISPSMRQCFDLVANAATTEANVLVTGETGTGKELLARTIHRNSPRRNGPFVVVDCAALTESLVESTLFGHKRGAFTGAQQDRDGLVKLADGGTLFLDEVGEMPLAIQRAFLRILQERSFRPVGGTQEIRSDFRLISATNRDLDAMVERGEFRKDLLFRLNTVHVELPPLRTRPEDLKPLAIFHMNRLAEQYGVPAKGFATDFFQQLAQYDWPGNVREFFNVLERSFVISGLEGVLYAMHLPQDVRIKITRASLARSEGHHHHHH” the “soluble on expression in E. coli” value was “soluble”. With “MSLTVTIKDVAKKANVAPSTVSRVIADNPSISEKTKRRVRKVMSELGYHPNLNARSLANQTTKTIGLVMPSSANKAFQNPFFPEVIRGISSFAHVEGYALYMSTGETEEEIFNGVIKMVQGRQIGGIILLYSRENDRIIQYLNEKNFPFVLIGKPYDKKDKITYVDNDNYTAAREVAEYFISLGHKRIAFIGGGSDLLVTKDRLAGMSDALKLADIQLPSEYIFHLDFSRESGQQAVEELMGLKEPPTAIMATDDLIGLGVLSALTAKGISVPKDVSLVSFNNVLLSEIASPPLTTVDVNIYQLGYEAAKALVDKVEHSESSSKCIVIPHKLLKRQTCEGHHHHHH” the “soluble on expression in E. coli” value was “soluble”. For “MSLTYDLLITDSHVITPKGMVEKNIVVENGKIELITNDSPDCDKKINGSGLVSIPGLIDPHVHYGVYSPIDQAAISESHAAAIGGVTTMIRMFRLKGSYKESLNKHLLASQNSHYIDYTLHASIFDDSQISEMQYCAENKIISFKIYMNLGGDVGHVYMEMNPGEEKLIAAEVNVTNELVEKIVKNAASLKCPVLVHAEDYQECSCGMKTEKEKNHDGLNAWSESRSPNFEAKSIQIICEYGRKYDCQIYFVHIGSKLALDKIKEEKKKGTKIFVETCPHYLTLSHETQTGYLAKVMPPIRTNNDVQSVWNALQNNEIDTIGTDHVANQLKLKLGGDDVWGALAGFPGIGTSLPILLSEGINKNRINLNQLANLTSTNSAKIFGLSGKGSLEKGYDADITMIDLKKEEKVSPELFGGFSDYLVYDGWNLKGWPVKTIVRGTVVAEDFEVIGKPGYGNFVPRKLSEGHHHHHH”, the “soluble on expression in E. coli” value was “not soluble”. In the case of “MSLTYYDDIRKVQDLHLPWEILTDINILIVGASGLIGRALVDTLMQLPDKTFHLYAGVRDLVYAQSCFMRYKDDESFTLIQCDVTALIPFDIDFHYIIHAASYAGPAAFHNDPVGVMKANILGVDNLFSYGEQHNLRRLLYVSSGEVYGEGNGIPFREEDSGSLDWASLRACYPAAKRTAETLCIAYAAQFQIETVIARPCHIYGPFYTSKDDRAYAQFIRNVLAGENIILRSSGLQQRSWCYVVDCVFALLYVLLKGKTKNAYNIADVRSNVSIREFAEMIALKSEREVIFDLPDNTGKNKPIISQAIFNTEKINKIGWFPQWKLEEGVSHTLNTLISVDGTYEGHITITTDPNSSSVDKLAAALEHHHHHH”, the “soluble on expression in E. coli” value is reported as “soluble”.

— the DeepSol protein solubility set
